Assay results as given in patent US5998172.
Each block holds one molecule with its values, some of them ahead of it.

Experiments:
[1] = target: activated leucocyte-cell adhesion molecule (ALCAM), CD6 ligand (human); assay: indirect immunofluorescence and flow cytometry, cultured TE cells; control
[2] = target: activated leucocyte-cell adhesion molecule (ALCAM), CD6 ligand (human); assay: flow cytometry, TE cells after CD66 mAb; CD5-Rg subtracted
[3] = target: activated leucocyte-cell adhesion molecule (ALCAM), CD6 ligand (human); assay: flow cytometry, TE cells after CD9 mAb; CD5-Rg subtracted
[4] = target: activated leucocyte-cell adhesion molecule (ALCAM), CD6 ligand (human); assay: flow cytometry, TE cells after CD66 mAb
[5] = target: activated leucocyte-cell adhesion molecule (ALCAM), CD6 ligand (human); assay: flow cytometry, TE cells after control mAb P3; CD5-Rg subtracted
[6] = target: activated leucocyte-cell adhesion molecule (ALCAM), CD6 ligand (human); assay: flow cytometry, TE cells after mAb J4-81
[7] = target: activated leucocyte-cell adhesion molecule (ALCAM), CD6 ligand (human); assay: flow cytometry, HBL-100 cells after mAb J4-81
[8] = target: activated leucocyte-cell adhesion molecule (ALCAM), CD6 ligand (human); assay: flow cytometry, TE cells after CD40 mAb
[9] = target: activated leucocyte-cell adhesion molecule (ALCAM), CD6 ligand (human); assay: flow cytometry, TE cells after CD59 mAb; CD5-Rg subtracted
[10] = target: activated leucocyte-cell adhesion molecule (ALCAM), CD6 ligand (human); assay: flow cytometry, TE cells, buffer with 5 mM MgCl2
[11] = target: activated leucocyte-cell adhesion molecule (ALCAM), CD6 ligand (human); assay: flow cytometry, TE cells after CD24 mAb; CD5-Rg subtracted
[12] = target: activated leucocyte-cell adhesion molecule (ALCAM), CD6 ligand (human); assay: flow cytometry, TE cells after CD58 mAb
[13] = target: activated leucocyte-cell adhesion molecule (ALCAM), CD6 ligand (human); assay: flow cytometry, TE cells, 10 mM EDTA against DME with 5% FBS
[14] = target: activated leucocyte-cell adhesion molecule (ALCAM), CD6 ligand (human); assay: flow cytometry, TE cells, buffer with 5 mM CaCl2
[15] = target: activated leucocyte-cell adhesion molecule (ALCAM), CD6 ligand (human)
[16] = target: activated leucocyte-cell adhesion molecule (ALCAM), CD6 ligand (human); assay: flow cytometry, TE cells after CD58 mAb; CD5-Rg subtracted
[17] = target: activated leucocyte-cell adhesion molecule (ALCAM), CD6 ligand (human); assay: indirect immunofluorescence and flow cytometry, cultured TE cells
[18] = target: activated leucocyte-cell adhesion molecule (ALCAM), CD6 ligand (human); assay: flow cytometry, TE cells after CD54 mAb
[19] = target: activated leucocyte-cell adhesion molecule (ALCAM), CD6 ligand (human); assay: flow cytometry, TE cells after CD63 mAb
[20] = target: activated leucocyte-cell adhesion molecule (ALCAM), CD6 ligand (human); assay: flow cytometry, TE cells after CD54 mAb; CD5-Rg subtracted
[21] = target: activated leucocyte-cell adhesion molecule (ALCAM), CD6 ligand (human); assay: flow cytometry, HBL-100 cells after control mAb P3; CD5-Rg subtracted
[22] = target: activated leucocyte-cell adhesion molecule (ALCAM), CD6 ligand (human); assay: flow cytometry, HBL-100 cells after mAb J4-81; CD5-Rg subtracted
[23] = target: activated leucocyte-cell adhesion molecule (ALCAM), CD6 ligand (human); assay: flow cytometry, TE cells after control mAb P3
[24] = target: activated leucocyte-cell adhesion molecule (ALCAM), CD6 ligand (human); assay: flow cytometry, TE cells after CD63 mAb; CD5-Rg subtracted
[25] = target: activated leucocyte-cell adhesion molecule (ALCAM), CD6 ligand (human); assay: flow cytometry, TE cells after CD59 mAb
[26] = target: activated leucocyte-cell adhesion molecule (ALCAM), CD6 ligand (human); assay: flow cytometry, HBL-100 cells, 10 to 200 µg/ml
[27] = target: activated leucocyte-cell adhesion molecule (ALCAM), CD6 ligand (human); assay: flow cytometry, TE cells after CD51 mAb; CD5-Rg subtracted
[28] = target: activated leucocyte-cell adhesion molecule (ALCAM), CD6 ligand (human); assay: flow cytometry, TE cells after CD40 mAb; CD5-Rg subtracted
[29] = target: activated leucocyte-cell adhesion molecule (ALCAM), CD6 ligand (human); assay: flow cytometry, TE cells after mAb J4-81; CD5-Rg subtracted
[30] = target: activated leucocyte-cell adhesion molecule (ALCAM), CD6 ligand (human); assay: flow cytometry, TE cells after CD24 mAb
[31] = target: activated leucocyte-cell adhesion molecule (ALCAM), CD6 ligand (human); assay: flow cytometry, TE cells after CD9 mAb
[32] = target: activated leucocyte-cell adhesion molecule (ALCAM), CD6 ligand (human); assay: flow cytometry, TE cells after CD46 mAb; CD5-Rg subtracted
[33] = target: activated leucocyte-cell adhesion molecule (ALCAM), CD6 ligand (human); assay: flow cytometry, TE cells, buffer with 5 mM MnCl2
[34] = target: activated leucocyte-cell adhesion molecule (ALCAM), CD6 ligand (human); assay: flow cytometry, HBL-100 cells after control mAb P3
[35] = target: activated leucocyte-cell adhesion molecule (ALCAM), CD6 ligand (human); assay: flow cytometry, TE cells after CD51 mAb
[36] = target: activated leucocyte-cell adhesion molecule (ALCAM), CD6 ligand (human); assay: flow cytometry, TE cells after CD46 mAb
[37] = target: activated leucocyte-cell adhesion molecule (ALCAM), CD6 ligand (human); remark: listed apart in the source

Molecule: CD6-Rg fusion protein (CD6 receptor globulin) (from UniProt P30203) (Fc fusion)
Δ Fluorescence [2]: 56 | Δ Fluorescence [3]: 60 | % Binding [4]: 108% | % inhibition [4]: -8% | Δ Fluorescence [5]: 52 | % Binding [6]: 40% | % Binding [7]: 59% | % Binding [8]: 92% | % inhibition [8]: 8% | Δ Fluorescence [9]: 52 | relative binding with 5 mM MgCl2 [10]: 94% | Δ Fluorescence [11]: 48 | % Binding [12]: 87% | % inhibition [12]: 13% | % inhibition of binding by 10 mM EDTA [13]: 54% | relative binding with 5 mM CaCl2 [14]: 144% | % Inhibition of thymocyte-thymic epithelial cell binding (rosettes) [15]: 34.5% | Δ Fluorescence [16]: 45 | MFC (linear mean fluorescence channel) [17]: 165 | % Binding [18]: 85% | % inhibition [18]: 15% | % Binding [19]: 102% | % inhibition [19]: -2% | Δ Fluorescence [20]: 44 | Δ Fluorescence [21]: 58 | Δ Fluorescence [22]: 34 | % Binding [23]: 100% | % inhibition [23]: 0% | Δ Fluorescence [24]: 53 | % Binding [25]: 100% | % inhibition [25]: 0% | saturating concentration [26]: 100 µg/mL | Δ Fluorescence [27]: 46 | Δ Fluorescence [28]: 48 | Δ Fluorescence [29]: 21 | % Binding [30]: 92% | % inhibition [30]: 8% | % Binding [31]: 115% | % inhibition [31]: -15% | Δ Fluorescence [32]: 57 | relative binding with 5 mM MnCl2 [33]: 318% | % Binding [34]: 100% | % inhibition [34]: 0% | % Binding [35]: 88% | % inhibition [35]: 12% | % Binding [36]: 110% | % inhibition [36]: -10%

Molecule: ELAM1-Rg fusion protein (from UniProt P16581) (Fc fusion)
MFC (linear mean fluorescence channel) [1]: 70.5

B1: CD6, P30203 (protein)
chain: HPSPAPPDQLNTSSAESELWEPGERLPVRLTNGSSSCSGTVEVRLEASWEPACGALWDSRAAEAVCRALGCGGAEAASQLAPPTPELPPPPAAGNTSVAANATLAGAPALLCSGAEWRLCEVVEHACRSDGRRARVTCAENRALRLVDGGGACAGRVEMLEHGEWGSVCDDTWDLEDAHVVCRQLGCGWAVQALPGLHFTPGRGPIHRDQVNCSGAEAYLWDCPGLPGQHYCGHKEDAGAVCSEHQSWRLTGGADRCEGQVEVHFRGVWNTVCDSEWYPSEAKVLCQSLGCGTAVERPKGLPHSLSGRMYYSCNGEELTLSNCSWRFNNSNLCSQSLAARVLCSASRSLHNLSTPEVPASVQTVTIESSVTVKIENKESRELMLLIPSIVLGILLLGSLIFIAFILLRIKGKYALPVMVNHQHLPTTIPAGSNSYQPVPITIPKEVFMLPIQVQAPPPEDSDSGSDSDYEHYDFSAQPPVALTTFYNSQRHRVTDEEVQQSRFQMPPLEEGLEELHASHIPTANPGHCITDPPSLGPQYHPRSNSESSTSSGEDYCNSPKSKLPPWNPQVFSSERSSFLEQPPNLELAGTQPAFSAGPPADDSSSTSSGEWYQNFQPPPQPPSEEQFGCPGSPSPQPDSTDNDDYDDISAA
% COS cells binding TE cells [37]: 25%

Next, values leading:

MFC (linear mean fluorescence channel) [1]: 72.1
Molecule: CD5-Rg fusion protein (from UniProt P06127) (Fc fusion)

MFC (linear mean fluorescence channel) [1]: 72.9
Molecule: human IgG1 (control)
